In patent US20200283521A1 (GRANULAR THERAPEUTICS, published 2020):

Columns and labels:
Test in all cases: cell array, transfected fixed HEK293 cells
[1] = biological target: T1, ANXA6 (human, UniProt P08133)
T1 construct: expressed in transfected HEK293 cells
T1 sequence (looked up): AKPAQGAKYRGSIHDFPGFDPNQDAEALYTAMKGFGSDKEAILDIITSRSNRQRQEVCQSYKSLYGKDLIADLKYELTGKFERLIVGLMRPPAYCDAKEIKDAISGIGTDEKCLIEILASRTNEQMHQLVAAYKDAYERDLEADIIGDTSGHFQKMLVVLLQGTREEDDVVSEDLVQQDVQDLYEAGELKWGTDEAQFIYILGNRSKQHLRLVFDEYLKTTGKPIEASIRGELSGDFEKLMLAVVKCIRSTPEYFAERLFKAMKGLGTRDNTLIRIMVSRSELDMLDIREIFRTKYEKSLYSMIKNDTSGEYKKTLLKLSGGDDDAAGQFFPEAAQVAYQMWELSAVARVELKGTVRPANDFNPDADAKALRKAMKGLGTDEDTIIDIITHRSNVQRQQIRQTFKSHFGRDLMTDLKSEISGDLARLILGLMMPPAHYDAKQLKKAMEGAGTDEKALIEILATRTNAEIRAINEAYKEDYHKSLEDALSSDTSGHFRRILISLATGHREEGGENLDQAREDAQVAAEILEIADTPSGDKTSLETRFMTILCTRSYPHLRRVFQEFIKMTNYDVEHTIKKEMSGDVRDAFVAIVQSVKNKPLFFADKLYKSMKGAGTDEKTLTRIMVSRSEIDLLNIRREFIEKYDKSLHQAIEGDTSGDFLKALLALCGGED
Procedure: (§1) Transfection of all plasmids was confirmed by screening for the co-encoded marker ZS green (FIG. 13A).
(§2) Primary hits (duplicate spots) were identified by analysing fluorescence (AF647 and ZsGreenl) on ImageQuant. Vectors encoding all hits were sequenced to confirm their correct identities. […] Slides were analysed as above.

[2] = biological target: T2, EGFR (human, UniProt P00533)
T2 construct: expressed in transfected HEK293 cells
Procedure: as §1, §2

[3] = biological target: T3, OSM (human, UniProt P13725)
T3 construct: expressed in transfected HEK293 cells
T3 sequence (looked up): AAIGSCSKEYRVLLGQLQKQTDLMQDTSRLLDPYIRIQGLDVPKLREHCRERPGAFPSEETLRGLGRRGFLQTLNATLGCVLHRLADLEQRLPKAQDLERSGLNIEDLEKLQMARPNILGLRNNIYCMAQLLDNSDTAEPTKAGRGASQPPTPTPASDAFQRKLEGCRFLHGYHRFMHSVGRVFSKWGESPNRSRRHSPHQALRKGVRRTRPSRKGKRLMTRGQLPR
Procedure: as §1, §2

[4] = biological target: T4, EDN2 (human, UniProt P20800)
T4 construct: expressed in transfected HEK293 cells
T4 sequence (looked up): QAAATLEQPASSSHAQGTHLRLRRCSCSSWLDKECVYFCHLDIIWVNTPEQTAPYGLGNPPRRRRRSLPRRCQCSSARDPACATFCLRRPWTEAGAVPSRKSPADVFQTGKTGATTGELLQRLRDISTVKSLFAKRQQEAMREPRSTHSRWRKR
Procedure: as §1, §2

[5] = biological target: T5, DES (human, UniProt P17661)
T5 construct: expressed in transfected HEK293 cells
T5 sequence (P17661 2-470 limits assumed): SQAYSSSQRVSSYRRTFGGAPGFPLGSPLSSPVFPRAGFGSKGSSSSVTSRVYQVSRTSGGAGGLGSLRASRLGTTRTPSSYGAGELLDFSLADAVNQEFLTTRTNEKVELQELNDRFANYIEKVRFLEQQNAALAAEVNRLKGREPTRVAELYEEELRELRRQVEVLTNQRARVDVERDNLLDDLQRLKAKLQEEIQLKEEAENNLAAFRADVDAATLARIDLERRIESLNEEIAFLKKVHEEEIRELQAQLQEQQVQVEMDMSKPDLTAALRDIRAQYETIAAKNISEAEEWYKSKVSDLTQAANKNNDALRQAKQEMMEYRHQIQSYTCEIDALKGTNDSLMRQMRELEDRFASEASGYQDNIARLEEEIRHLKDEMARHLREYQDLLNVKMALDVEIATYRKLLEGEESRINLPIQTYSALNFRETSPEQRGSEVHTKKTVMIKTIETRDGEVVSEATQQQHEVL
Procedure: as §1, §2

[6] = biological target: T6, BAIAP2L2 (human, UniProt Q6UXY1)
T6 construct: expressed in transfected HEK293 cells
T6 sequence (looked up): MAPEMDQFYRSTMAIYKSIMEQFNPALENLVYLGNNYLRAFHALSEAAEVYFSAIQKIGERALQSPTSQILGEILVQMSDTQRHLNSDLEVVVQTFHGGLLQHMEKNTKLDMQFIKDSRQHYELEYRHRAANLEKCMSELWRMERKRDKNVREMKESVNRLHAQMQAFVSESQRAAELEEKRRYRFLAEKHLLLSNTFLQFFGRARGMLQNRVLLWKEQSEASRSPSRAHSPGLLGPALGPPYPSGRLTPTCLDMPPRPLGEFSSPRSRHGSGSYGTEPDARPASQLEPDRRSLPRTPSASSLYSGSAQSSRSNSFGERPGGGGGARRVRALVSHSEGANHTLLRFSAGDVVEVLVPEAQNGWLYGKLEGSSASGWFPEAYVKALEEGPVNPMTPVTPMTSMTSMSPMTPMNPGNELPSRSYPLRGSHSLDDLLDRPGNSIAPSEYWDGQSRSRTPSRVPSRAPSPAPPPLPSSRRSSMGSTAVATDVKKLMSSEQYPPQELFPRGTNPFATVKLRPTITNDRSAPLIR
Procedure: as §1, §2

[7] = biological target: T7, ZG16B (human, UniProt Q96DA0)
T7 construct: expressed in transfected HEK293 cells
T7 sequence (looked up): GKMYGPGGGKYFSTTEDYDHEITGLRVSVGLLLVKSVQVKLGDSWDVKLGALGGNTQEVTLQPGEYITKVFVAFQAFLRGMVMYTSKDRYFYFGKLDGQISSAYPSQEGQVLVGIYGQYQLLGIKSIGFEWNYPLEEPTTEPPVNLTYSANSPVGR
Procedure: as §1, §2

[8] = biological target: T8, MSN (human, UniProt P26038)
T8 construct: expressed in transfected HEK293 cells
T8 sequence (P26038 2-577 limits assumed): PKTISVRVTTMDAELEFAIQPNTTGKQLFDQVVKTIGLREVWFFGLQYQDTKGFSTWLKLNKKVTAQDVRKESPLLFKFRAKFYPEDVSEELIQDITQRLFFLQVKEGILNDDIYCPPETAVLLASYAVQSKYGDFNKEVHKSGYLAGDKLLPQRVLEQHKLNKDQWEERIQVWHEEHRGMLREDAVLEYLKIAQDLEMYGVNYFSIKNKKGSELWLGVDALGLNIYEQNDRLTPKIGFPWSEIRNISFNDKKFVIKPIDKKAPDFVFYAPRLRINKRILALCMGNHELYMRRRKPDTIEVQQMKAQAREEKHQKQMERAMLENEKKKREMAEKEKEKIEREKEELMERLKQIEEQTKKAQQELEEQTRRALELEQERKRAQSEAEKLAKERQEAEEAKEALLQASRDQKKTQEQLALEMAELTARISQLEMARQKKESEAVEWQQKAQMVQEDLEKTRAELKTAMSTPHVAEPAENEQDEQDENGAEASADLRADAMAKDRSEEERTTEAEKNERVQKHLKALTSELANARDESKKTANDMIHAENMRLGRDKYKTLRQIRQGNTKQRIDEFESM
Procedure: as §1, §2

[9] = biological target: T9, COL23A1 (human, UniProt Q86Y22)
T9 construct: expressed in transfected HEK293 cells
T9 sequence (Q86Y22 whole entry): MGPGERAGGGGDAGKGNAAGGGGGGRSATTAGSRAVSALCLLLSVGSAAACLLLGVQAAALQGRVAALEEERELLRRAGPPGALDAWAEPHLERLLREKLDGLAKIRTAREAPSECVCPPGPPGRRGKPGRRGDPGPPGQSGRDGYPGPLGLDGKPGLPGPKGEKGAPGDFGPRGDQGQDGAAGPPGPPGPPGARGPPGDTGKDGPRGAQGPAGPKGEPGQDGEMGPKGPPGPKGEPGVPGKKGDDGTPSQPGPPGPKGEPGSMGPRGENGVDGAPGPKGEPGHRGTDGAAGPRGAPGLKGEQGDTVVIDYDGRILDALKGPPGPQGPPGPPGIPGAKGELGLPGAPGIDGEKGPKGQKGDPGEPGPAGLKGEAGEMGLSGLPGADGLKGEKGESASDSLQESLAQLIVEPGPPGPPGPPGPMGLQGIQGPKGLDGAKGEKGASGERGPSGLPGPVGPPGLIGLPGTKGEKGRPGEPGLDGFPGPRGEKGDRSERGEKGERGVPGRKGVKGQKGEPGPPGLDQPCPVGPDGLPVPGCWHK
Procedure: as §1, §2

Measured: binding result

B1: MH1, human IgG1 (antibody, V domains shown)
VH: QVQLVQSGAEVKKPGASVKVSCKASGYTFTDYYMNWVRQAPGQGLEWMGRIYPGSGNTYYAQKFQGRVTMTRDTSTSTVYMELSSLRSEDTAVYYCARGVYYYDYWGQGTLVTVSS
VL: DIQMTQSPSSLSASVGDRVTITCRASQGIRTNLAWFQQKPGKAPKSLIYAASSLQSGVPSRFSGSGSGTDFTLTISSLQPEDFATYYCQQYNSYPRTFGGGTKVEIK
notes: IgG1; also called IgG1-MH1
no binding (tested: 2 µg/ml): all assays above
